Assay results taken from PMC7865148 (Proceedings of the National Academy of Sciences of the …, 2021).

T1: NST1-GST fusion protein (Arabidopsis thaliana, UniProt Q84WP6 1-365)
T1 sequence (looked up): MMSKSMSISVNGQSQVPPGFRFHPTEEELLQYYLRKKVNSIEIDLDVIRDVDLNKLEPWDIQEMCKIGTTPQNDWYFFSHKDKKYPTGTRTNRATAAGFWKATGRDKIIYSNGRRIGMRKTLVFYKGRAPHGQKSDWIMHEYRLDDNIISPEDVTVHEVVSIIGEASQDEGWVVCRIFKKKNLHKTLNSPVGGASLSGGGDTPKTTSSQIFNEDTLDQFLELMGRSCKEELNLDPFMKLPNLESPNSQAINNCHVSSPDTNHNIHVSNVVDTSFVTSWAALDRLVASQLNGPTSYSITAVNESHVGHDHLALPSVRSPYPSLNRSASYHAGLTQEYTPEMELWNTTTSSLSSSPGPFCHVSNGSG


Biological target: T1, NST1-GST fusion protein
Test: pull-down

Row | binding result | Binder
1 | binds | SnRK2.2-6xHis fusion protein (enzyme, Arabidopsis thaliana, UniProt Q39192 1-362, looked up) MDPATNSPIMPIDLPIMHDSDRYDFVKDIGSGNFGVARLMTDRVTKELVAVKYIERGEKIDENVQREIINHRSLRHPNIVRFKEVILTPSHLAIVMEYAAGGELYERICNAGRFSEDEARFFFQQLISGVSYCHAMQICHRDLKLENTLLDGSPAPRLKICDFGYSKSSVLHSQPKSTVGTPAYIAPEILLRQEYDGKLADVWSCGVTLYVMLVGAYPFEDPQEPRDYRKTIQRILSVTYSIPEDLHLSPECRHLISRIFVADPATRITIPEITSDKWFLKNLPGDLMDENRMGSQFQEPEQPMQSLDTIMQIISEATIPTVRNRCLDDFMADNLDLDDDMDDFDSESEIDVDSSGEIVYAL
2 | binds | SnRK2.3-6xHis fusion protein (enzyme, Arabidopsis thaliana, UniProt Q39193 1-361, looked up) MDRAPVTTGPLDMPIMHDSDRYDFVKDIGSGNFGVARLMRDKLTKELVAVKYIERGDKIDENVQREIINHRSLRHPNIVRFKEVILTPTHLAIIMEYASGGELYERICNAGRFSEDEARFFFQQLLSGVSYCHSMQICHRDLKLENTLLDGSPAPRLKICDFGYSKSSVLHSQPKSTVGTPAYIAPEVLLRQEYDGKIADVWSCGVTLYVMLVGAYPFEDPEEPRDYRKTIQRILSVKYSIPDDIRISPECCHLISRIFVADPATRISIPEIKTHSWFLKNLPADLMNESNTGSQFQEPEQPMQSLDTIMQIISEATIPAVRNRCLDDFMTDNLDLDDDMDDFDSESEIDIDSSGEIVYAL
3 | binds | SnRK2.6-6xHis fusion protein (enzyme, Arabidopsis thaliana, UniProt Q940H6 1-362, looked up) MDRPAVSGPMDLPIMHDSDRYELVKDIGSGNFGVARLMRDKQSNELVAVKYIERGEKIDENVKREIINHRSLRHPNIVRFKEVILTPTHLAIVMEYASGGELFERICNAGRFSEDEARFFFQQLISGVSYCHAMQVCHRDLKLENTLLDGSPAPRLKICDFGYSKSSVLHSQPKSTVGTPAYIAPEVLLKKEYDGKVADVWSCGVTLYVMLVGAYPFEDPEEPKNFRKTIHRILNVQYAIPDYVHISPECRHLISRIFVADPAKRISIPEIRNHEWFLKNLPADLMNDNTMTTQFDESDQPGQSIEEIMQIIAEATVPPAGTQNLNHYLTGSLDIDDDMEEDLESDLDDLDIDSSGEIVYAM
